Columns and labels:
Arabidopsis [1] = assay: dgt-28, dgt-32, dgt-33, dgt-3, dgt-7 transformed Arabidopsis (T1, T2, T3) response to postemergence glyphosate, % visual injury; format: in vivo, Arabidopsis thaliana; conditions: 14 days after application
Excerpt: Transgenic T1 Arabidopsis plants containing the dgt-28 transgene were sprayed with differing rates of glyphosate. Elevated rates were applied in this study to determine the relative levels of resistance (105, 420, 1,680 or 3,360 g ae/ha). A typical 1× usage rate of glyphosate that will control non-transformed Arabidopsis is 420 g ae/ha. […] The T1 Arabidopsis plants that were used in this study were variable copy number for the dgt-28 transgene. The low copy dgt-28 T1 Arabidopsis plants were self-pollinated and used to produce T2 plants.
Results of Glyphosate Selection of Transformed dgt-28 Arabidopsis Plants. The Arabidopsis T1 transformants were first selected from the background of untransformed seed using a glufosinate selection scheme. Three flats or 30,000 seed were analyzed for each T1 construct. The T1 plants selected above were molecularly characterized and representative plants with variable copy number were subsequently transplanted to individual pots and sprayed with various rates of commercial glyphosate as previously described. The response of these plants is presented in terms of % visual injury 2 weeks after treatment (WAT). […] An arithmetic mean and standard deviation is presented for each construct used for Arabidopsis transformation. The range in individual response is also indicated in the last column for each rate and transformation. Wild-type, non-transformed Arabidopsis (c.v. Columbia) served as a glyphosate sensitive control.
T2Arabidopsis Data. The second generation plants (T2) of selected T1 Arabidopsis events which contained low copy numbers of the dgt-28 transgene were further characterized for glyphosate tolerance. Glyphosate was applied as described previously. The response of the plants is presented in terms of % visual injury 2 weeks after treatment (WAT). […] An arithmetic mean and standard deviation are presented for each construct used for Arabidopsis transformation. The range in individual response is also indicated in the last column for each rate and transformation. Wild-type, non-transformed Arabidopsis (cv. Columbia) served as a glyphosate sensitive control. In the T2 generation hemizygous and homozygous plants were available for testing for each event and therefore were included for each rate of glyphosate tested. Hemizygous plants contain two different alleles at a locus as compared to homozygous plants which contain the same two alleles at a locus. Variability of response to glyphosate is expected in the T2 generation as a result of the difference in gene dosage for hemizygous as compared to homozygous plants. The variability in response to glyphosate is reflected in the standard deviation and range of response.
T3 Arabidopsis Data. The third generation plants (T3) of selected T2 Arabidopsis events which contained low copy numbers of the dgt-28 transgene were further characterized for glyphosate tolerance. […] Glyphosate was applied as described previously. The response of the plants is presented in terms of % visual injury 2 weeks after treatment (WAT). […] An arithmetic mean and standard deviation are presented for each construct used for Arabidopsis transformation. The range in individual response is also indicated in the last column for each rate and transformation. Wild-type, non-transformed Arabidopsis (cv. Columbia) served as a glyphosate-sensitive control.

Arabidopsis [2] = assay: Heritability progeny test of T1 families (T2 plants) with glufosinate, Arabidopsis; format: in vivo, Arabidopsis thaliana; conditions: progeny test of 100 T2 plants, glufosinate 200 g ae/ha
Excerpt: Heritability. Confirmed transgenic T1 Arabidopsis events were self-pollinated to produce T2 seed. These seed were progeny tested by applying Ignite™ herbicide containing glufosinate (200 g ae/ha) to 100 random T2 siblings. […] The T1 families (T2 plants) segregated in the anticipated 3 Resistant: 1 Sensitive model for a dominantly inherited single locus with Mendelian inheritance as determined by Chi square analysis (P>0.05). […] Seed were collected from 5 to 15 T2 individuals (T3 seed). Twenty-five T3 siblings from each of 3-4 randomly-selected T2 families were progeny tested as previously described.

[3] = Table 8, T1 Arabidopsis, 105 g ae/ha glyphosate
[4] = Table 8, T1 Arabidopsis, 420 g ae/ha glyphosate
[5] = Table 8, T1 Arabidopsis, 1680 g ae/ha glyphosate
[6] = Table 8, T1 Arabidopsis, 3360 g ae/ha glyphosate
[7] = Table 10, T1 Arabidopsis, 1,680 g ae/ha glyphosate
[8] = Table 12, T2 Arabidopsis, 1 copy, 420 g ae/ha glyphosate
[9] = Table 12, T2 Arabidopsis, 1 copy, 840 g ae/ha glyphosate
[10] = Table 12, T2 Arabidopsis, 1 copy, 1680 g ae/ha glyphosate
[11] = Table 12, T2 Arabidopsis, 1 copy, 3360 g ae/ha glyphosate

B1: pDAB105531: TraP8 v2 -- dgt-28 v5: binary construct TraP8 v2: dgt-28 v5 (SEQ ID NO:34) (nucleic acid)
DNA: ATGGCTCAATCTAGCAGAATCTGCCACGGTGTGCAGAACCCATGTGTGATCATTTCCAATCTCTCCAAATCCAACCAGAACAAATCTCCTTTCTCAGTCAGCCTCAAGACTCACCAGCAGCAGCGTCGTGCTTACCAGATATCTAGCTGGGGATTGAAGAAGTCAAACAACGGGTCCGTGATTCGTCCGGTTAAGGCAGCAAGAGGGATGCCAGCCTTGTCTTTACCTGGATCAAAGAGTATCACAGCTAGGGCACTCTTTCTTGCTGCTGCTGCTGATGGGGTTACTACTTTGGTGAGGCCATTGAGAAGTGACGACACAGAAGGATTCGCTGAGGGGTTAGTTCGTTTAGGCTATCGTGTAGGGAGGACACCCGATACTTGGCAAGTCGATGGCAGACCACAAGGACCAGCAGTGGCTGAGGCTGACGTCTACTGTAGAGACGGAGCAACCACCGCTAGATTCTTGCCAACCTTAGCAGCTGCTGGTCACGGAACATACAGATTTGATGCTTCACCACAGATGAGGAGACGTCCTCTTTTGCCCTTAAGCAGAGCCTTGAGGGATTTGGGTGTCGATCTTAGACACGAAGAAGCTGAAGGTCATCACCCTCTGACTGTCCGTGCTGCTGGGGTTGAAGGAGGAGAGGTTACTTTGGATGCTGGTCAGTCAAGTCAGTATCTCACTGCCTTGTTGCTCCTTGGTCCCCTTACAAGACAAGGACTGAGGATAAGGGTTACTGATTTGGTGTCAGCACCATACGTGGAGATTACGCTTGCAATGATGAGGGCTTTCGGAGTTGAAGTGGCAAGGGAGGGAGATGTGTTCGTTGTTCCACCTGGTGGATATCGTGCAACTACGTATGCTATAGAACCCGACGCAAGTACTGCTTCTTACTTCTTCGCAGCTGCTGCTTTGACTCCTGGAGCTGAAGTGACTGTACCTGGGTTAGGCACGGGAGCACTTCAAGGAGATTTGGGATTTGTAGATGTCTTAAGGAGAATGGGAGCCGAGGTGTCCGTAGGAGCTGATGCAACCACTGTTAGAGGAACTGGTGAATTGCGTGGCCTTACAGCCAACATGAGAGACATAAGTGATACGATGCCGACCCTCGCTGCAATAGCACCCTTTGCTAGTGCTCCAGTTAGAATCGAGGATGTTGCCAACACTCGTGTCAAAGAATGTGACAGACTTGAGGCTTGTGCAGAGAACCTTAGGAGGTTGGGAGTAAGGGTTGCAACGGGTCCGGACTGGATTGAGATACACCCTGGTCCAGCTACTGGTGCTCAAGTCACAAGCTATGGTGATCACAGAATTGTGATGTCATTTGCAGTGACTGGACTTCGTGTGCCTGGGATCAGCTTCGACGACCCTGGCTGTGTTCGTAAGACTTTTCCTGGGTTTCACGAGGCTTTCGCAGAATTGAGGCGTGGCATTGGGAGCTGA
modifications: In-frame fusion of dgt-28 v5 and TraP8 v2
For B1, the “% Injury Ave” value (Arabidopsis [1]; [3]) was 10.8%, the “% Injury Range (%)” value (Arabidopsis [1]; [3]) was 0-25% and the “No. plants with 20-40% injury” value (Arabidopsis [1]; [3]) was 1. For the same molecule, the “No. plants with <20% injury” value (Arabidopsis [1]; [3]) was 3, the “No. plants with >40% injury” value (Arabidopsis [1]; [3]) was 0 and the “% Injury Ave” value (Arabidopsis [1]; [4]) was 22.8%. For the same molecule, the “% Injury Range (%)” value (Arabidopsis [1]; [4]) was 8-50%, the “No. plants with 20-40% injury” value (Arabidopsis [1]; [4]) was 0 and the “No. plants with <20% injury” value (Arabidopsis [1]; [4]) was 3. For the same molecule, the “No. plants with >40% injury” value (Arabidopsis [1]; [4]) was 1, the “% Injury Ave” value (Arabidopsis [1]; [5]) was 5.3% and the “% Injury Range (%)” value (Arabidopsis [1]; [5]) was 0-8%. For the same molecule, the “No. plants with 20-40% injury” value (Arabidopsis [1]; [5]) was 0, the “No. plants with <20% injury” value (Arabidopsis [1]; [5]) was 4 and the “No. plants with >40% injury” value (Arabidopsis [1]; [5]) was 0. For the same molecule, the “% Injury Ave” value (Arabidopsis [1]; [6]) was 29.3%, the “% Injury Range (%)” value (Arabidopsis [1]; [6]) was 22-35% and the “No. plants with 20-40% injury” value (Arabidopsis [1]; [6]) was 4. The “No. plants with <20% injury” value (Arabidopsis [1]; [6]) was 0, the “No. plants with >40% injury” value (Arabidopsis [1]; [6]) was 0 and the “% Injury Ave” value (Arabidopsis [1]; [7]) was 5.3%. For the same molecule, the “% Injury Range (%)” value (Arabidopsis [1]; [7]) was 0-8%, the “No. plants with 20-40% injury” value (Arabidopsis [1]; [7]) was 0 and the “No. plants with <20% injury” value (Arabidopsis [1]; [7]) was 4. The “No. plants with >40% injury” value (Arabidopsis [1]; [7]) was 0, the “% Injury Ave” value (Arabidopsis [1]; [8]) was 0.5% and the “% Injury Range (%)” value (Arabidopsis [1]; [8]) was 0-2%. For the same molecule, the “No. plants with 20-40% injury” value (Arabidopsis [1]; [8]) was 0, the “No. plants with <20% injury” value (Arabidopsis [1]; [8]) was 4 and the “No. plants with >40% injury” value (Arabidopsis [1]; [8]) was 0. For the same molecule, the “% Injury Ave” value (Arabidopsis [1]; [9]) was 1.3%, the “% Injury Range (%)” value (Arabidopsis [1]; [9]) was 0-5% and the “No. plants with 20-40% injury” value (Arabidopsis [1]; [9]) was 0. The “No. plants with <20% injury” value (Arabidopsis [1]; [9]) was 4, the “No. plants with >40% injury” value (Arabidopsis [1]; [9]) was 0 and the “% Injury Ave” value (Arabidopsis [1]; [10]) was 7.5%. For the same molecule, the “% Injury Range (%)” value (Arabidopsis [1]; [10]) was 5-15%, the “No. plants with 20-40% injury” value (Arabidopsis [1]; [10]) was 0 and the “No. plants with <20% injury” value (Arabidopsis [1]; [10]) was 4. For the same molecule, the “No. plants with >40% injury” value (Arabidopsis [1]; [10]) was 0, the “% Injury Ave” value (Arabidopsis [1]; [11]) was 7.5% and the “% Injury Range (%)” value (Arabidopsis [1]; [11]) was 0-15%. The “No. plants with 20-40% injury” value (Arabidopsis [1]; [11]) was 0, the “No. plants with <20% injury” value (Arabidopsis [1]; [11]) was 4 and the “No. plants with >40% injury” value (Arabidopsis [1]; [11]) was 0. The “T1 Families Tested Segregating at 1 Locus (%)” value (Arabidopsis [2]) was 100%.

Reference: US9493781B2, “Synthetic brassica-derived chloroplast transit peptides” (DOW AGROSCIENCES LLC, priority 2012, dated 2016)
